From patent publication US6274134A, “Human cell adhesion protein AAMP-1 and uses thereof” (National Institutes of Health, priority 1993, dated 2001)

Assay: H3-heparin binding assay, recombinant AAMP blotted onto Immobilon-P
Settings: tritiated heparin 2.5 U/mL
Protocol: Heparin binding assays utilizing competition of tritiated heparin (heparin sodium salt, [^3 H(G)]-, NEN DuPont), with unlabeled heparin, were performed for recombinant AAMP, solubilized P189 (immobilized on CovaLink™ plates), and for aggregated P189 in 0.1% BSA-DMEM solutions. Recombinant AAMP in bacterial lysate and bovine serum albumin in equal amounts were electrophoresed for gel purification, and blotted onto Immobilon-P™. These blots were incubated 3 hours with tritiated heparin, 2.5 U/mL (10.7 uCi/mL) at room temperature, alone and with increasing amounts of unlabeled heparin (0.125-0.25 U/mL) for competition. Following 3 washes, the bands of AAMP recombinant protein and BSA (triplicates for each heparin concentration) were cut from the blotted Immobilon P strips, placed in scintillation vials, and counted for comparisons. Solubilized P189 (6.25 ug/mL) was immobilized on CovaLink™ plates, as described previously, and incubated one hour at room temperature with tritiated heparin, […] (0.213 uCi/mL), alone and with increasing amounts of unlabeled heparin (50-500 U/mL) for competition. Following three washes, the plate wells, in duplicates or triplicates for each heparin concentration, were placed in scintillation vials and counted. In separate assays, aggregates of P189 (200 ug/mL in 0.1% BSA-DMEM) were incubated one hour on a rocker at room temperature with tritiated heparin (0.05 U/mL) alone and with increasing amounts of unlabeled heparin (0.05-5 U/mL) for competition. Following centrifugation,the precipitate was washed with 0.1% BSA-DMEM, centrifuged again, and then transferred to scintillation vials for counting. The background cpm/umole protein levels for assays with AAMP recombinant protein competed with unlabeled heparin, were standardized to AAMP recombinant protein's average background cpm/umole protein with no labeled heparin present.

tritiated heparin binding, cpm above background per umole protein, with competition by equal amount of cold heparin (1:1 unlabeled heparin, 3 assays, S.D.): 2139 cpm/umole protein
tritiated heparin binding, cpm above background per umole protein, without competition (6 assays, S.D.): 9134+/-2699 cpm/umole protein
tritiated heparin binding, times more than background (BSA) (approx. 15 ug protein on Immobilon-P, 6 assays): 2.2+/-0.4 times
B1: Recombinant AAMP: Recombinant human cell adhesion protein AAMP, gel purified from bacterial lysate (SEQ ID NO:7) (protein)
chain: GPEKWIRRLRRMESESESGAAADTPPLETLSFHGDEEIIEVVELDPGPPDPDDLAQEMEDVDFEEEEEEEGNEEGWVLEPQEGVVGSMEGPDDSEVTFALHSASVFCVSLDPKTNTLAVTGGEDDKAFVWRLSDGELLFECAGHKDSVTCAGFSHDSTLVATGDMSGLLKVWQVDTKEEVWSFEAGDLEWMEWHPRAPVLLAGTADGNTWMWKVPNGDCKTFQGPNCPATCGRVLPDGKRAVVGYEDGTIRIWDLKQGSPIHVLKGTEGHQGPLTCVAANQDGSLILTGSVDCQAKLVSATTGKVVGVFRPETVASQPSLGEGEESESNSVESLGFCSVMPLAAVGYLDGTLAIYDLATQTLRHQCQHQSGIVQLLWEAGTAVVYTCSLDGIVRLWDARTGRLLTDYRGHTAEILDFALSKDASLVVTTSGDHKAKVFCVQRPDR
